Experimental data reported in patent US6825325 (FRAUNHOFER GESELLSCHAFT ZUR FORDERUNG DER ANGEWANDTEN …, dated 2004).

How the values were obtained:
[1] = molecular target: bacterially expressed GST-protein alone (Schistosoma japonicum, UniProt P08515 1-218 = GST); assay: ELISA of scFvs (member of the panel of 10)
[2] = molecular target: T1, GST-30K fusion protein (bacterially expressed 30K TMV movement protein fused to GST) (Schistosoma japonicum; Tobacco mosaic …, UniProt P03583 1-268); assay: ELISA of scFvs (member of the panel of 10)
T1 construct: not shown: glutathione S-transferase, Schistosoma japonicum (Pharmacia GST-System)
T1 sequence (looked up): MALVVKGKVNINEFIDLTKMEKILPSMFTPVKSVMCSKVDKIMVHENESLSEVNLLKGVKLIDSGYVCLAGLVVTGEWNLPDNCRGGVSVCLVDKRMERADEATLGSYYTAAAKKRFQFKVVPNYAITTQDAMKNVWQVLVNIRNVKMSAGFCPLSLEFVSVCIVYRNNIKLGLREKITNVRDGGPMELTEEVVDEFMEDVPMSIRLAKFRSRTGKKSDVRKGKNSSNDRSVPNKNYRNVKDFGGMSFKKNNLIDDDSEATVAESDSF

Sequence of bacterially expressed GST-protein alone (P08515 whole entry, the tested form may be a part): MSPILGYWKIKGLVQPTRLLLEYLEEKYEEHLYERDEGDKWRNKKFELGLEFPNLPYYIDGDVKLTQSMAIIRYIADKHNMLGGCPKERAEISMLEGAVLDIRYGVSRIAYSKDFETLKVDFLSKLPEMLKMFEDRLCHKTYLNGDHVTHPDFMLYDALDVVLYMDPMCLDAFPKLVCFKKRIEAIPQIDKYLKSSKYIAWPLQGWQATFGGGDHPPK

B1: scFv 30-2 (scFv)
scFv: EVKLQQSGAELVKPGASVKISCKASDYSFTGYNMNWVKQSHGKSLEWIGNINPYYGSTSYNQKFKGKATLTVDKSSSTAYMQLNSLTSEDSAVYYCAVGGNYVDWFAYWGQGTLVTVSSGGGGSGGGGSGGGGSDILLTQSPLSLPVSLGDHASISCRSSQSLVHSNGNTYLHWYLQNPGQSPKLLIYKVSNRFSGIPDRFSGSGSGTDFTLKISRVEAEDLGVYFCSQSTHVPYTFGGGTKLELKRAVDAAAEQKLISEEDLNGAA
notes: also called 30K specific scFv No. 2; scFv 30K-2
binding result [1]: no binding
binding result [2]: binds
